The results in this text go back to article PMC7768477 (Antibodies, 2020).

In assay [1] the target is T1, Lassa NPn (N-terminal portion of NP encoding residues 1-340) (Lassa virus lineage IV, strain Josiah, UniProt P13699).
T1 construct: source: bought: Zalgen (recombinant)
The assay is described as follows: SPR; ProteOn XPR36; […] (20 ug/mL in 10 mM sodium acetate pH 5.0); […]; Langmuir model. Conditions: both partners purified. Background: SPR reads the build-up and loss of mass on a sensor chip optically.

The target of assay [2] is T2, Lassa NPc (C-terminal portion of NP encoding residues 341-569) (Lassa virus lineage IV, strain Josiah, UniProt P13699).
T2 construct: source: bought: Zalgen (recombinant)
T2 sequence (P13699 341-569): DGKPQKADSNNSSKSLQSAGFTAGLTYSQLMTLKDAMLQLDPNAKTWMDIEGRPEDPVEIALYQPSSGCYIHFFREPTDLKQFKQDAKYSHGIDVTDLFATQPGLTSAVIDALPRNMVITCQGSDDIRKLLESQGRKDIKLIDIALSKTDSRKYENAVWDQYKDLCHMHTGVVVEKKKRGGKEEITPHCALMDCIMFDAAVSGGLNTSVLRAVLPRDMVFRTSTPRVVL
The assay is described as follows: SPR; ProteOn XPR36; […] (20 ug/mL in 10 mM sodium acetate pH 5.0); […]. Conditions: both partners purified.

T1 sequence (P13699 1-340): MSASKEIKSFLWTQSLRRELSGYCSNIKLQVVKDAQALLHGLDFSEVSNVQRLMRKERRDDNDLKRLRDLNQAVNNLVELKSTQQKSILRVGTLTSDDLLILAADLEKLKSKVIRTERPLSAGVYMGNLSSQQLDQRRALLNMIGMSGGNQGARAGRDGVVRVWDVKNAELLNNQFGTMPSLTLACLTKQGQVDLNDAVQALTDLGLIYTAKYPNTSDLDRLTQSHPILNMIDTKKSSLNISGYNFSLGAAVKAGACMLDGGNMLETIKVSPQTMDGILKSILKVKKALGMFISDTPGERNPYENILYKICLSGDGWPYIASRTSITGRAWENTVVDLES

B1: sdAb E1 (VHH)
VHH: DVQLQASGGGLVQTGGSLRLSCENSGRALRIMGWFRQAPGKEREFVATINRNGESTYYSDSVKGRFTISRDNNKNTVYLQMNNLKPEDTGVYNCAADRPGPTQIKTRADDYDYWGEGTQVTVSS
notes: also called clone E1; source: E. coli Tuner (DE3), periplasmic, purified (osmotic shock, IMAC, gel filtration)
With B1, the binding result in assay [1] and in assay [2] was “no binding” in each case.

B2: sdAb B5 (VHH)
VHH: EVQLQASGGGLAQPGGSLRLSCAASGFTLVYYGIGWFRQAPGKEREGVSCISSNDGSTYYADSVKGRFTISRDAAKNTVYLQMNSLKPEDTAVYYCATELGNTHRGSFFPNRRVERCRTDDFASWGQGTQVTVSS
notes: source: E. coli Tuner (DE3), periplasmic, purified (osmotic shock, IMAC, gel filtration)
On to B2, for which, in assay [1], the Kd (as a rule, the free concentration of one partner at which half of the binding sites on the other are occupied at equilibrium, for simple one-to-one binding) turned out to be 19 nM; the koff (as a rule, a measure of how fast the partners let go of each other) was 0.0061 s⁻¹; the kon (in general, the second-order rate constant of association) amounted to 320000 M⁻¹ s⁻¹. In addition, the binding result in assay [2] is given as “no binding”.

B3: sdAb H6 (VHH)
VHH: DVQLQASGGGVVQPGGSLRLSCVASGFTLVYYGIGWFRQAPGKEREGVSCISSNDGSTYYADSVKGRFTISRDAAKNTVYLQMNSLKPEDTAVYYCATELGNTHRGSFFPNRRVKRCRTDDFASWGQGTQVTVSS
notes: also called clone H6; Bt-H6; source: E. coli Tuner (DE3), periplasmic, purified (osmotic shock, IMAC, gel filtration)
In assay [1], B3 displayed a Kd of 9.3 nM, a koff of 0.0057 s⁻¹ and a kon of 610000 M⁻¹ s⁻¹. Moreover, the binding result in assay [2] is on record as “no binding”.

B4: sdAb E11 (VHH)
VHH: EVQLQASGGGLAQPGGSLRLSCAASGFTLVYYGIGWFRQAPGKEREGVSCISSNDGTTYYADSVKGRFTISRDNAKNTVYLQMNSLKPEDTAVYYCATELGNTHRGSYFPKQRVERCHTGDFASWGQGTQVTVSS
notes: as for B2
In assay [1], B4 came in with a Kd of 57 nM, a koff of 0.0076 s⁻¹ and a kon of 150000 M⁻¹ s⁻¹. Also, in assay [2], the binding result is “no binding”.

B5: sdAb F3 (VHH)
VHH: DVQLQASGGGLVQPGGSLRLSCAASGFTLVYYGIGWFRQAPGKEREGVSCISSYDGTTYYADSVKGRFTISRDNAKNTVYLQMNSLKPEDTAVYYCATELGNTHRGSYFPKQRVERCHTGDFASWGQGTQVTVSS
notes: as for B2
With B5, in assay [1], binding was characterised by a dissociation constant (Kd) of 7.5 nM, the koff was 0.003 s⁻¹ and the kon turned out to be 400000 M⁻¹ s⁻¹. In addition, in assay [2], the binding result is listed as “no binding”.

B6: sdAb C7 (VHH)
VHH: EVQLQASGGGLVQPGGSLRLSCVASGFTLVYYGIGWFRQAPGKEREGVSCISSNDGSTYYADSVKGRFTISRDAAKNTMYLQMNSLKPEDTAVYYCATELGNTHRGSFFPNRRVERCRTDDFASWGQGTQVTVSS
notes: as for B2
In assay [1], B6 came in with a Kd of 7.5 nM, a koff of 0.0038 s⁻¹ and an on-rate (kon) of 510000 M⁻¹ s⁻¹. Besides, in assay [2], the binding result is recorded as “no binding”.

B7: sdAb G11 (VHH)
VHH: DVQLQASGGGLVQAGDSLTLSCAASGRTVSPYGVGWFRQAPGREREFVAALSRSGTFTAYADSVKGRFTISRDNAKNTVYLQMNSLKPDDTAVYHCAARSASSYYSTYRKEDDYHYWGQGTQVTVSS
notes: as for B2
In assay [1], B7 registered a Kd of 184 nM, a koff of 0.07 s⁻¹ and a kon of 380000 M⁻¹ s⁻¹. Also, the binding result in assay [2] is “no binding”.

B8: sdAb E10 (VHH)
VHH: DVQLQASGGGLVQAGASLRLSCAASGFTYTMGWFRQAPGQEREFVAAIARSGGTTYYTDSVKGRFTISRDNAKKTVFLQLNSLKPEDTAVYYCAADALPYSAQSMSTRNPGYWGQGTQVTVSS
notes: as for B2
Take B8: in assay [1], the Kd worked out at 69 nM, the koff stood at 0.13 s⁻¹ and the kon was 1.9e+06 M⁻¹ s⁻¹. In assay [2], the binding result is “no binding”.
